# Patent publication US20250179138
# System: ACP11 (human p40/murine p35 IL-12 fusion protein)
# Sequence of active MMP9 (Sigma catalog #SAE0078-50 or Enzo catalog BML-SE360) (chain, as listed by the source): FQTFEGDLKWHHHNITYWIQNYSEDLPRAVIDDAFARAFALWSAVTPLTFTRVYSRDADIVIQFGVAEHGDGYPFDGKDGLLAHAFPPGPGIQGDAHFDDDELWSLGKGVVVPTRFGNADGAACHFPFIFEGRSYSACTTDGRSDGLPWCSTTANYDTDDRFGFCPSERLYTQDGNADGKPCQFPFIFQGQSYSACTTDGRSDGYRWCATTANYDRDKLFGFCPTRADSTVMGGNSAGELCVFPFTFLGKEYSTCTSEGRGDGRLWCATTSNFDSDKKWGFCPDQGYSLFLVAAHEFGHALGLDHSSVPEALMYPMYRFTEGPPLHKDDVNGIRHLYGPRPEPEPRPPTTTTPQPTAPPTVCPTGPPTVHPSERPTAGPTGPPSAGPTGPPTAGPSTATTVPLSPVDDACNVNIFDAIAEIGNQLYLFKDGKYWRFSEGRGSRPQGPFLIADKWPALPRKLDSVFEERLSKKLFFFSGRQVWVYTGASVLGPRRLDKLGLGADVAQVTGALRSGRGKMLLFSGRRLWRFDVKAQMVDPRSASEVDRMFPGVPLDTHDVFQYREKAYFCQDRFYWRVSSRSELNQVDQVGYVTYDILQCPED
substance,measurement,value
active MMP9 (Sigma catalog #SAE0078-50 or Enzo catalog BML-SE360),"protein cleavage assay, extent of cleavage monitored by SDS PAGE",the ACP11 fusion protein was cleaved by MMP9 protease
